The results in this text go back to US20250218531A1 (ABSCI, published 2025).

The target in this experiment is T1, HER2 (human epidermal growth factor receptor 2) (human, UniProt P04626 23-629).
T1 construct: also called Antigen: HER2
The experiment in a line: SPR.

Where “and” joins values, the source holds several entries; their conditions need not be identical. Identical values can stand only once.

B1: Trastuzumab HCDR3 variant AKYLGQEAYAYFS (Fab, V domains shown)
VH: EVQLVESGGGLVQPGGSLRLSCAASGFNIKDTYIHWVRQAPGKGLEWVARIYPTNGYTRYADSVKGRFTISADTSKNTAYLQMNSLRAEDTAVYYCAKYLGQEAYAYFSWGQGTLVTVSS
VL: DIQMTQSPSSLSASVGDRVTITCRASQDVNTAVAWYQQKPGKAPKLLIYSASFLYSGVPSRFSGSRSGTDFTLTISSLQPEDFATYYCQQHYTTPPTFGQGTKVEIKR
Usually Kd stands for the free concentration of one partner at which half of the binding sites on the other are occupied at equilibrium, for simple one-to-one binding. B1: the affinity, expressed as Kd, was 14.9 nM and the “log(KD (M))” value was -7.83.

B2: Trastuzumab HCDR3 variant ARWGGPGYYAFVW (Fab, V domains shown)
VH: EVQLVESGGGLVQPGGSLRLSCAASGFNIKDTYIHWVRQAPGKGLEWVARIYPTNGYTRYADSVKGRFTISADTSKNTAYLQMNSLRAEDTAVYYCARWGGPGYYAFVWWGQGTLVTVSS
VL: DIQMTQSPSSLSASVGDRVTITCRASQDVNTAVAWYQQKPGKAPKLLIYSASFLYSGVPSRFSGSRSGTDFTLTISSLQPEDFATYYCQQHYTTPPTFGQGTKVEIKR
On to B2, for which binding was characterised by a dissociation constant (Kd) of 8.08 nM and the “log(KD (M))” value is -8.09.

B3: Trastuzumab HCDR3 variant ARWLGEGYYNFDY (Fab, V domains shown)
VH: EVQLVESGGGLVQPGGSLRLSCAASGFNIKDTYIHWVRQAPGKGLEWVARIYPTNGYTRYADSVKGRFTISADTSKNTAYLQMNSLRAEDTAVYYCARWLGEGYYNFDYWGQGTLVTVSS
VL: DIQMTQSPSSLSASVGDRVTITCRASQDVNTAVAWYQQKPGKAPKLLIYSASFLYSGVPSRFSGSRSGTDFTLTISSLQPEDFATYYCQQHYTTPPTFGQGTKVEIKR
For B3, the dissociation constant (Kd) came to 3.42 nM and the “log(KD (M))” value is -8.47.

B4: Trastuzumab HCDR3 variant ARWGGYGYYYMDV (Fab, V domains shown)
VH: EVQLVESGGGLVQPGGSLRLSCAASGFNIKDTYIHWVRQAPGKGLEWVARIYPTNGYTRYADSVKGRFTISADTSKNTAYLQMNSLRAEDTAVYYCARWGGYGYYYMDVWGQGTLVTVSS
VL: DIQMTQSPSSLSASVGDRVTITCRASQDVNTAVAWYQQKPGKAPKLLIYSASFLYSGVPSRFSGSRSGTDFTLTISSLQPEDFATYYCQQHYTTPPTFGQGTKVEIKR
With B4, the Kd worked out at 8.78 nM and the “log(KD (M))” value was -8.06.

B5: Trastuzumab HCDR3 variant ARWGSIGYYAFDH (Fab, V domains shown)
VH: EVQLVESGGGLVQPGGSLRLSCAASGFNIKDTYIHWVRQAPGKGLEWVARIYPTNGYTRYADSVKGRFTISADTSKNTAYLQMNSLRAEDTAVYYCARWGSIGYYAFDHWGQGTLVTVSS
VL: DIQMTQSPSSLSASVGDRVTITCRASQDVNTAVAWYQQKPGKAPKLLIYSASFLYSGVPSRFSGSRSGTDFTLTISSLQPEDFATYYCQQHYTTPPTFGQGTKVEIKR
As for B5, binding was put at a Kd of 20.5 nM and the “log(KD (M))” value is -7.69.

B6: Trastuzumab HCDR3 variant ANDIYIQGYDLNR (Fab, V domains shown)
VH: EVQLVESGGGLVQPGGSLRLSCAASGFNIKDTYIHWVRQAPGKGLEWVARIYPTNGYTRYADSVKGRFTISADTSKNTAYLQMNSLRAEDTAVYYCANDIYIQGYDLNRWGQGTLVTVSS
VL: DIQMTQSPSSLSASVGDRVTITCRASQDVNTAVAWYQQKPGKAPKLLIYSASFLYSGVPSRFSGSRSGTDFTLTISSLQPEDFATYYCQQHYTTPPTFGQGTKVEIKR
With B6, binding was characterised by a dissociation constant (Kd) of 3.99 nM and the “log(KD (M))” value was -8.4.

B7: Trastuzumab HCDR3 variant ARWLGSGYYWFDY (Fab, V domains shown)
VH: EVQLVESGGGLVQPGGSLRLSCAASGFNIKDTYIHWVRQAPGKGLEWVARIYPTNGYTRYADSVKGRFTISADTSKNTAYLQMNSLRAEDTAVYYCARWLGSGYYWFDYWGQGTLVTVSS
VL: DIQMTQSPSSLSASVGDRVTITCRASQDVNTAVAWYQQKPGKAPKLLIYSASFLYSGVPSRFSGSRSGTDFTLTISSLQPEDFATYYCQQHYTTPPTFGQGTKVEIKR
With B7, binding was characterised by a dissociation constant (Kd) of 10.9 nM and the “log(KD (M))” value is -7.96.

B8: Trastuzumab HCDR3 variant ARHFGVASYSFDY (Fab, V domains shown)
VH: EVQLVESGGGLVQPGGSLRLSCAASGFNIKDTYIHWVRQAPGKGLEWVARIYPTNGYTRYADSVKGRFTISADTSKNTAYLQMNSLRAEDTAVYYCARHFGVASYSFDYWGQGTLVTVSS
VL: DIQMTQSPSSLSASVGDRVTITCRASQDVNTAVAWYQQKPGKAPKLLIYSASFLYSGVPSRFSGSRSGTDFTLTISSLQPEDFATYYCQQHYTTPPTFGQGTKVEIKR
As to B8, the Kd came to 13.9 nM and the “log(KD (M))” value was -7.86.

B9: Trastuzumab HCDR3 variant ARWGEFGPYYFDY (Fab, V domains shown)
VH: EVQLVESGGGLVQPGGSLRLSCAASGFNIKDTYIHWVRQAPGKGLEWVARIYPTNGYTRYADSVKGRFTISADTSKNTAYLQMNSLRAEDTAVYYCARWGEFGPYYFDYWGQGTLVTVSS
VL: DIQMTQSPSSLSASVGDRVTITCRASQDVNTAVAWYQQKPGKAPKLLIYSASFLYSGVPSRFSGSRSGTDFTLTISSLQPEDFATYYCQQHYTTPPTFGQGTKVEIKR
As to B9, binding was characterised by a dissociation constant (Kd) of 9.24 nM and the “log(KD (M))” value was -8.03.

B10: Trastuzumab HCDR3 variant ARWGYGGYYYFDY (Fab, V domains shown)
VH: EVQLVESGGGLVQPGGSLRLSCAASGFNIKDTYIHWVRQAPGKGLEWVARIYPTNGYTRYADSVKGRFTISADTSKNTAYLQMNSLRAEDTAVYYCARWGYGGYYYFDYWGQGTLVTVSS
VL: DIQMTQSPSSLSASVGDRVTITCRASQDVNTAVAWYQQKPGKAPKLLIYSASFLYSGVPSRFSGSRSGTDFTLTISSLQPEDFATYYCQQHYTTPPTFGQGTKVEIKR
Consider B10, for which binding was put at a Kd of 19.1 nM and the “log(KD (M))” value is -7.72.

B11: Trastuzumab HCDR3 variant ARNYYDLYYYFDY (Fab, V domains shown)
VH: EVQLVESGGGLVQPGGSLRLSCAASGFNIKDTYIHWVRQAPGKGLEWVARIYPTNGYTRYADSVKGRFTISADTSKNTAYLQMNSLRAEDTAVYYCARNYYDLYYYFDYWGQGTLVTVSS
VL: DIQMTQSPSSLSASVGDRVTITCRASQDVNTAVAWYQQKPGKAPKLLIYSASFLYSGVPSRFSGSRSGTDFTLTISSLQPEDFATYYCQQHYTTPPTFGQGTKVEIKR
Regarding B11, the equilibrium dissociation constant (Kd) was 8.41 nM and the “log(KD (M))” value is -8.08.

B12: Trastuzumab HCDR3 variant ARENDGSPGSFEY (Fab, V domains shown)
VH: EVQLVESGGGLVQPGGSLRLSCAASGFNIKDTYIHWVRQAPGKGLEWVARIYPTNGYTRYADSVKGRFTISADTSKNTAYLQMNSLRAEDTAVYYCARENDGSPGSFEYWGQGTLVTVSS
VL: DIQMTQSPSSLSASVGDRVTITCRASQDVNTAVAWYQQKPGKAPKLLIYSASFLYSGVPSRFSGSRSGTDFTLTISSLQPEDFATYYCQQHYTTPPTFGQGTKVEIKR
In the case of B12, the affinity, expressed as Kd, was 23.1 nM and the “log(KD (M))” value is -7.64.

B13: Trastuzumab HCDR3 variant ARWLRALGYYMDY (Fab, V domains shown)
VH: EVQLVESGGGLVQPGGSLRLSCAASGFNIKDTYIHWVRQAPGKGLEWVARIYPTNGYTRYADSVKGRFTISADTSKNTAYLQMNSLRAEDTAVYYCARWLRALGYYMDYWGQGTLVTVSS
VL: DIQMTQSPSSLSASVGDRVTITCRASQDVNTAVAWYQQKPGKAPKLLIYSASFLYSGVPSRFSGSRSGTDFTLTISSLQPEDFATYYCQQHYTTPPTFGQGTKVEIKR
On to B13, for which the dissociation constant (Kd) was 15.9 nM and 15.8 nM; the “log(KD (M))” value was -7.8.

B14: Trastuzumab HCDR3 variant ARWGYGYSYYFDV (Fab, V domains shown)
VH: EVQLVESGGGLVQPGGSLRLSCAASGFNIKDTYIHWVRQAPGKGLEWVARIYPTNGYTRYADSVKGRFTISADTSKNTAYLQMNSLRAEDTAVYYCARWGYGYSYYFDVWGQGTLVTVSS
VL: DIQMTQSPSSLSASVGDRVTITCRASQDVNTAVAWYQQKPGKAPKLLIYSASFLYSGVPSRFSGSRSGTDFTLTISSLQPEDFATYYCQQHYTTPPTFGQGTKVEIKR
As for B14, the affinity, expressed as Kd, was 21.1 nM and the “log(KD (M))” value is -7.68.

B15: Trastuzumab HCDR3 variant ARWLAGYNYYFDV (Fab, V domains shown)
VH: EVQLVESGGGLVQPGGSLRLSCAASGFNIKDTYIHWVRQAPGKGLEWVARIYPTNGYTRYADSVKGRFTISADTSKNTAYLQMNSLRAEDTAVYYCARWLAGYNYYFDVWGQGTLVTVSS
VL: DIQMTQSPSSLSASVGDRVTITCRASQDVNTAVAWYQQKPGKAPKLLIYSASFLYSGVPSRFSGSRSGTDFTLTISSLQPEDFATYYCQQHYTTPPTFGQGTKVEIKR
In the case of B15, binding was characterised by a dissociation constant (Kd) of 15.7 nM and the “log(KD (M))” value is -7.8.

B16: Trastuzumab HCDR3 variant ARWPFYGPYNYDY (Fab, V domains shown)
VH: EVQLVESGGGLVQPGGSLRLSCAASGFNIKDTYIHWVRQAPGKGLEWVARIYPTNGYTRYADSVKGRFTISADTSKNTAYLQMNSLRAEDTAVYYCARWPFYGPYNYDYWGQGTLVTVSS
VL: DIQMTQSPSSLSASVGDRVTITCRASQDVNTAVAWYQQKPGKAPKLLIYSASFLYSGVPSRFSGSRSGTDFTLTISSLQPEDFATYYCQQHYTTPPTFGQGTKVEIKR
For the molecule B16, the equilibrium dissociation constant (Kd) was 2.64 nM and the “log(KD (M))” value was -8.58.

B17: Trastuzumab HCDR3 variant ARWGYSGWYVMDY (Fab, V domains shown)
VH: EVQLVESGGGLVQPGGSLRLSCAASGFNIKDTYIHWVRQAPGKGLEWVARIYPTNGYTRYADSVKGRFTISADTSKNTAYLQMNSLRAEDTAVYYCARWGYSGWYVMDYWGQGTLVTVSS
VL: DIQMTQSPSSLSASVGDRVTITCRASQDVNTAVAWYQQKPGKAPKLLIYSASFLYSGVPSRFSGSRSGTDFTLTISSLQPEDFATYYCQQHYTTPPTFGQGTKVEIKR
Consider B17, for which binding was characterised by a dissociation constant (Kd) of 6.93 nM and the “log(KD (M))” value was -8.16.

B18: Trastuzumab HCDR3 variant ARWGYDYYYAMDY (Fab, V domains shown)
VH: EVQLVESGGGLVQPGGSLRLSCAASGFNIKDTYIHWVRQAPGKGLEWVARIYPTNGYTRYADSVKGRFTISADTSKNTAYLQMNSLRAEDTAVYYCARWGYDYYYAMDYWGQGTLVTVSS
VL: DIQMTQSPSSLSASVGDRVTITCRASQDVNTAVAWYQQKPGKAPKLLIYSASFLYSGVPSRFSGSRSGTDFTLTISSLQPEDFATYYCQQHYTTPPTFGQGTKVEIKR
As for B18, the Kd was found to be 19.4 nM and the “log(KD (M))” value was -7.71.

B19: Trastuzumab HCDR3 variant ARWDSGGPYYFDS (Fab, V domains shown)
VH: EVQLVESGGGLVQPGGSLRLSCAASGFNIKDTYIHWVRQAPGKGLEWVARIYPTNGYTRYADSVKGRFTISADTSKNTAYLQMNSLRAEDTAVYYCARWDSGGPYYFDSWGQGTLVTVSS
VL: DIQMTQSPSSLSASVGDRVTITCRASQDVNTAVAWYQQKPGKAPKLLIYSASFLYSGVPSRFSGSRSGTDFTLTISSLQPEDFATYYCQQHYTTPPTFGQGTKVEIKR
For B19, binding was put at a Kd of 15.4 nM and the “log(KD (M))” value is -7.81.

B20: Trastuzumab HCDR3 variant ARWGYDYYYYFDV (Fab, V domains shown)
VH: EVQLVESGGGLVQPGGSLRLSCAASGFNIKDTYIHWVRQAPGKGLEWVARIYPTNGYTRYADSVKGRFTISADTSKNTAYLQMNSLRAEDTAVYYCARWGYDYYYYFDVWGQGTLVTVSS
VL: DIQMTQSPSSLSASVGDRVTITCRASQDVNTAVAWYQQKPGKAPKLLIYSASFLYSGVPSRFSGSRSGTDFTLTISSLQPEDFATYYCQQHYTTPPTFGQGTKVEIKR
For the molecule B20, binding was characterised by a dissociation constant (Kd) of 26.7 nM and the “log(KD (M))” value was -7.57.

B21: Trastuzumab HCDR3 variant ARWGYYGNYYFDY (Fab, V domains shown)
VH: EVQLVESGGGLVQPGGSLRLSCAASGFNIKDTYIHWVRQAPGKGLEWVARIYPTNGYTRYADSVKGRFTISADTSKNTAYLQMNSLRAEDTAVYYCARWGYYGNYYFDYWGQGTLVTVSS
VL: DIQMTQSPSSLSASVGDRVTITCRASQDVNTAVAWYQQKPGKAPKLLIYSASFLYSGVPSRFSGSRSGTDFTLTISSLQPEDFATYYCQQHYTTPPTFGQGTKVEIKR
On to B21, for which the Kd is 13.4 nM and the “log(KD (M))” value is -7.87.
